From publication PMC9482650, “Quantitative fragmentomics allow affinity mapping of interactomes” (Nature Communications, 2022)

T1: SHANK1, Q9Y566
T1 sequence (Q9Y566 658-767, limits assumed, looked up): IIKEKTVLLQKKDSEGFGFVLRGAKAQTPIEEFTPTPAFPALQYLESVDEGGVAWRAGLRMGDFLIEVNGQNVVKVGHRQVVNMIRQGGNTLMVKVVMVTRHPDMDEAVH

T2: PARD3B_1, Q8TEW8
T2 sequence (Q8TEW8 196-299, limits assumed, looked up): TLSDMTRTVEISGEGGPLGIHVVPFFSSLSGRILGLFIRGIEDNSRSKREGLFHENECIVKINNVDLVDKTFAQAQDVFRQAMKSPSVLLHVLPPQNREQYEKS

T3: RHPN1, Q8TCX5
T3 sequence (Q8TCX5 508-602, limits assumed, looked up): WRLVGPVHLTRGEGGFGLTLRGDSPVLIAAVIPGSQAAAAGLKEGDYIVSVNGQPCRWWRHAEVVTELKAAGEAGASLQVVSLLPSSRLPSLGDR

T4: DLG3_3, Q92796
T4 sequence (Q92796 374-475, limits assumed, looked up): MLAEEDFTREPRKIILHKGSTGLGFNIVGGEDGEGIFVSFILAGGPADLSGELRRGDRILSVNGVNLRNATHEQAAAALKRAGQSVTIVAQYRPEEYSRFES

T5: SIPA1L2, Q9P2F8
T5 sequence (Q9P2F8 945-1036, limits assumed, looked up): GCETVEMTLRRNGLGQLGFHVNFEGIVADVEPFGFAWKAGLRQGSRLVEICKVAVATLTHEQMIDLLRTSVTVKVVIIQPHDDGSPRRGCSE

T6: LIN7C, Q9NUP9
T6 sequence (Q9NUP9 88-185, limits assumed, looked up): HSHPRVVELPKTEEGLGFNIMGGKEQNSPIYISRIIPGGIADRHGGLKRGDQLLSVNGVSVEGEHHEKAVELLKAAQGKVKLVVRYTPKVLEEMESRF

T7: GRIP1_4, Q9Y3R0
T7 sequence (Q9Y3R0 467-571, limits assumed, looked up): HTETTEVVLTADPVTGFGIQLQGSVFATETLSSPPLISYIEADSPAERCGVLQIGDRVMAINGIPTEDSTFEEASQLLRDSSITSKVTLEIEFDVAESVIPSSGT

T8: MPDZ_12, O75970
T8 sequence (O75970 1857-1958, limits assumed, looked up): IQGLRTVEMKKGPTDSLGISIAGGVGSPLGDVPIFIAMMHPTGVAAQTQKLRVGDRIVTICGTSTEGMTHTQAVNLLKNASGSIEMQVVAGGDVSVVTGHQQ


Assays:
Assay in all cases: holdup assay
Design in all cases: key: below the threshold = too weak to quantify, mostly under pKd 3.1 to 4
Conditions in all cases: plain residues with an end cap or a label only (N-terminal biotin on a linker: ado-ado)
[1] = target: T1, SHANK1, Q9Y566
[2] = target: GRID2IP_2, A4D2P6
Chain of GRID2IP_2, A4D2P6 (A4D2P6 272-370): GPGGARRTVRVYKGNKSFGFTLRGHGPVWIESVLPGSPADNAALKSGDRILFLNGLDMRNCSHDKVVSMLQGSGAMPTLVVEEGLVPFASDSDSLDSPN

[3] = target: T2, PARD3B_1, Q8TEW8
[4] = target: T3, RHPN1, Q8TCX5
[5] = target: T4, DLG3_3, Q92796
[6] = target: LDB3, O75112
Chain of LDB3, O75112 (O75112 1-94): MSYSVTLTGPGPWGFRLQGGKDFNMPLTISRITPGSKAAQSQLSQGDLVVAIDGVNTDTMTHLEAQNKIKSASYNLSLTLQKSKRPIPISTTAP

[7] = target: MAGI2_6, Q86UL8
Chain of MAGI2_6, Q86UL8 (Q86UL8 1141-1229): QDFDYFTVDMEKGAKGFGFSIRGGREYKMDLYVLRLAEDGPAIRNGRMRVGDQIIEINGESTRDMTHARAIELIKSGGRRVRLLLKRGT

[8] = target: Inadl_2, Q8NI35
Chain of Inadl_2, Q8NI35 (Q8NI35 238-335): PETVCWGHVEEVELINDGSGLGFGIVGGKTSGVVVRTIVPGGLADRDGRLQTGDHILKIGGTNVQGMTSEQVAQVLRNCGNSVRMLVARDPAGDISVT

[9] = target: MAGI2_2, Q86UL8
Chain of MAGI2_2, Q86UL8 (Q86UL8 410-522): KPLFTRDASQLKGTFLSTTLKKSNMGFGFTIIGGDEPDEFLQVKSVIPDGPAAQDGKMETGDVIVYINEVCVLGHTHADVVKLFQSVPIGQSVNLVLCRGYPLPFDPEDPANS

[10] = target: GORASP1, Q9BQQ3
Chain of GORASP1, Q9BQQ3 (Q9BQQ3 1-208): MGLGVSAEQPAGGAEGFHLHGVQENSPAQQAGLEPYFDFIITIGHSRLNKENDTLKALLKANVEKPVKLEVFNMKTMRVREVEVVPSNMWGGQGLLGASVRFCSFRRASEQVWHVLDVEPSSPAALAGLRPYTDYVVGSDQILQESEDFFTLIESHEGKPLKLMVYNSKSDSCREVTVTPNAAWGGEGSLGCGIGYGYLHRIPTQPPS

[11] = target: LNX1_3, Q8TBB1
Chain of LNX1_3, Q8TBB1 (Q8TBB1 500-596): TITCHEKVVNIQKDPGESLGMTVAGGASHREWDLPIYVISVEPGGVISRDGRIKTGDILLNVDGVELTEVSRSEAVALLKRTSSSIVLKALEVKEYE

[12] = target: FRMPD3, Q5JV73
Chain of FRMPD3, Q5JV73 (Q5JV73 12-100): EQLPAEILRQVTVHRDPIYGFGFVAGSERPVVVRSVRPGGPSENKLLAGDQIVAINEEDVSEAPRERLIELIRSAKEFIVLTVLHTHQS

[13] = target: DLG1_2, Q12959
Chain of DLG1_2, Q12959 (Q12959 314-412): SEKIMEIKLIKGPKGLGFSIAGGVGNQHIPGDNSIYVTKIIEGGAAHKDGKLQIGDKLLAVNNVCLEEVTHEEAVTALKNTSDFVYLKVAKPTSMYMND

[14] = target: Inadl_1, Q8NI35
Chain of Inadl_1, Q8NI35 (Q8NI35 113-229): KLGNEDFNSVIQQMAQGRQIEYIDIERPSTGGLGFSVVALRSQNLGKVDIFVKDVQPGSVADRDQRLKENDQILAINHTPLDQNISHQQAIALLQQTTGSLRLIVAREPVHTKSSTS

[15] = target: SNX27, Q96L92
[16] = target: T5, SIPA1L2, Q9P2F8
[17] = target: FRMPD2_1, Q68DX3
Chain of FRMPD2_1, Q68DX3 (Q68DX3 770-861): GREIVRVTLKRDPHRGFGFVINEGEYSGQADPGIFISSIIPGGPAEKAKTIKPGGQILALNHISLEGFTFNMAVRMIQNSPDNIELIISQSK

[18] = target: NHERF4_1, Q86UT5-2
Chain of NHERF4_1, Q86UT5-2 (Q86UT5 other isoform, or with tags, fused parts or gaps): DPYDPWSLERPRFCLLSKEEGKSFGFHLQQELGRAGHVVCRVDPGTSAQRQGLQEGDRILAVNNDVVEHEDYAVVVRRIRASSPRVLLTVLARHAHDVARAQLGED

[19] = target: SCRIB_3, Q14160
Chain of SCRIB_3, Q14160 (Q14160 999-1103): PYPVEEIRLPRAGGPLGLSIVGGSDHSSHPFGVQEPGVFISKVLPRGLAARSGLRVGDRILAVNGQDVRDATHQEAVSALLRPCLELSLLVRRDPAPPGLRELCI

[20] = target: T6, LIN7C, Q9NUP9
[21] = target: GRIP2_4, Q9C0E4
Chain of GRIP2_4, Q9C0E4 (Q9C0E4 446-548): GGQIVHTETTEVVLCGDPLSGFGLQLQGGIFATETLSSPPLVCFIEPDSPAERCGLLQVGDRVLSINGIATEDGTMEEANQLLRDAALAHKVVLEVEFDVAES

[22] = target: HTRA2, O43464
Chain of HTRA2, O43464 (O43464 355-458): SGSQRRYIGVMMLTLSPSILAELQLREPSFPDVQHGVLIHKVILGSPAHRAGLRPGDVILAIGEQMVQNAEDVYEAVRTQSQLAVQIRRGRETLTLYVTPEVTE

[23] = target: Inadl_6, Q8NI35
Chain of Inadl_6, Q8NI35 (Q8NI35 1058-1167): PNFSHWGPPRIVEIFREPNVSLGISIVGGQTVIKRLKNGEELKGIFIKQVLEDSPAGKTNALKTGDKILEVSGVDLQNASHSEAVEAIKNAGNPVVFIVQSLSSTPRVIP

[24] = target: PTPN3, P26045
Chain of PTPN3, P26045 (P26045 505-587): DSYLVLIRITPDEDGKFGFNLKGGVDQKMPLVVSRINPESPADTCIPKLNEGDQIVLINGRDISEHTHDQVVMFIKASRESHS

[25] = target: NHERF2_2, Q15599
Chain of NHERF2_2, Q15599 (Q15599 142-238): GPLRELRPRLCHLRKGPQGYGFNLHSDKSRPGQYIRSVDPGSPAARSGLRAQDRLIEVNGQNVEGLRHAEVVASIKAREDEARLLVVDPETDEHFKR

[26] = target: T7, GRIP1_4, Q9Y3R0
[27] = target: NHERF4_4, Q86UT5
Chain of NHERF4_4, Q86UT5 (Q86UT5 464-550): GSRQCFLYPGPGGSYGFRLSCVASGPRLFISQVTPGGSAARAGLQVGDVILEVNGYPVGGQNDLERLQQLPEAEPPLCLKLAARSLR

[28] = target: ARHGEF12, Q9NZN5-2
Chain of ARHGEF12, Q9NZN5-2 (Q9NZN5 other isoform, or with tags, fused parts or gaps): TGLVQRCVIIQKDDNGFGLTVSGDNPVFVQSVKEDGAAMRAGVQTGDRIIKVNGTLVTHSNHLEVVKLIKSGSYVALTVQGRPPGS

[29] = target: T8, MPDZ_12, O75970

Binder | pKd [1] | pKd [2] | pKd [3] | pKd [4] | pKd [5] | pKd [6] | pKd [7] | pKd [8] | pKd [9] | pKd [10] | pKd [11] | pKd [12] | pKd [13] | pKd [14] | pKd [15] | pKd [16] | pKd [17] | pKd [18] | pKd [19] | pKd [20] | further results
SGSLKLMTTV [DACT1, Q9NYF0] | below the threshold | 3.97 | below the threshold | 4.58 | 4.2 | below the threshold | below the threshold | below the threshold | 5.28 | 3.56 | below the threshold | below the threshold | 5.54 | below the threshold | 4.35 | below the threshold | below the threshold | below the threshold | 3.59 | below the threshold | pKd [21]: below the threshold; pKd [22]: below the threshold; pKd [23]: below the threshold; pKd [24]: 3.8; pKd [25]: below the threshold; pKd [26]: below the threshold; pKd [27]: below the threshold; pKd [28]: 4.62; pKd [29]: 3.77
ETQVTAETVI [TMEM225B, P0DP42] | below the threshold | below the threshold | 4.18 | 4.44 | below the threshold | below the threshold | below the threshold | below the threshold | below the threshold | 3.67 | below the threshold | below the threshold | 4.37 | below the threshold | 5.39 | below the threshold | below the threshold | below the threshold | 4.34 | 4.07 | pKd [21]: below the threshold; pKd [22]: below the threshold; pKd [23]: below the threshold; pKd [24]: 4.59; pKd [25]: below the threshold; pKd [26]: below the threshold; pKd [27]: below the threshold; pKd [28]: 3.84; pKd [29]: below the threshold

Second part, led by results:

pKd [1] | pKd [2] | pKd [3] | pKd [4] | pKd [5] | pKd [6] | pKd [7] | pKd [8] | pKd [9] | pKd [10] | pKd [11] | pKd [12] | pKd [13] | pKd [14] | pKd [15] | pKd [16] | pKd [17] | pKd [18] | pKd [19] | pKd [20] | Binder | further results
below the threshold | below the threshold | 3.88 | below the threshold | below the threshold | below the threshold | below the threshold | below the threshold | below the threshold | below the threshold | below the threshold | below the threshold | below the threshold | below the threshold | below the threshold | below the threshold | below the threshold | below the threshold | 3.75 | below the threshold | LKVPPEERLI [CRB2, Q5IJ48] | pKd [21]: below the threshold; pKd [22]: below the threshold; pKd [23]: below the threshold; pKd [24]: below the threshold; pKd [25]: below the threshold; pKd [26]: below the threshold; pKd [27]: below the threshold; pKd [28]: below the threshold; pKd [29]: below the threshold
below the threshold | below the threshold | 4.13 | below the threshold | below the threshold | below the threshold | below the threshold | below the threshold | below the threshold | below the threshold | below the threshold | below the threshold | below the threshold | below the threshold | below the threshold | below the threshold | below the threshold | 3.51 | below the threshold | 4.01 | YRLAQESGLV [ABCC6, O95255] | pKd [21]: below the threshold; pKd [22]: below the threshold; pKd [23]: below the threshold; pKd [24]: 3.87; pKd [25]: below the threshold; pKd [26]: below the threshold; pKd [27]: below the threshold; pKd [28]: below the threshold; pKd [29]: below the threshold
below the threshold | below the threshold | below the threshold | below the threshold | below the threshold | below the threshold | below the threshold | below the threshold | 3.56 | below the threshold | below the threshold | below the threshold | below the threshold | below the threshold | below the threshold | below the threshold | below the threshold | below the threshold | below the threshold | below the threshold | SNAGNTATKA [NOSTRIN, Q8IVI9] | pKd [21]: below the threshold; pKd [22]: below the threshold; pKd [23]: below the threshold; pKd [24]: 3.87; pKd [25]: below the threshold; pKd [26]: below the threshold; pKd [27]: below the threshold; pKd [28]: below the threshold; pKd [29]: below the threshold
